# Measured values taken from IntAct's records for PubMed 31515488.
# B1: Chorion-specific transcription factor GCMb (Homo sapiens), O75603 (parent)
# chain: MPAAAVQEAVGVCSYGMQLSWDINDPQMPQELALFDQFREWPDGYVRFIYSSDEKKAQRHLSGWAMRNTNNHNGHILKKSCLGVVVCTQACTLPDGSRLQLRPAICDKARLKQQKKACPNCHSALELIPCRGHSGYPVTNFWRLDGNAIFFQAKGVHDHPRPESKSETEARRSAIKRQMASFYQPQKKRIRESEAEENQDSSGHFSNIPPLENPEDFDIVTETSFPIPGQPCPSFPKSDVYKATCDLATFQGDKMPPFQKYSSPRIYLPRPPCSYELANPGYTNSSPYPTLYKDSTSIPNDTDWVHLNTLQCNVNSYSSYERSFDFTNKQHGWKPALGKPSLVERTNHGQFQAMATRPYYNPELPCRYLTTPPPGAPALQTVITTTTKVSYQAYQPPAMKYSDSVREVKSLSSCNYAPEDTGMSVYPEPWGPPVTVTRAASPSGPPPMKIAGDCRAIRPTVAIPHEPVSSRTDEAETWDVCLSGLGSAVSYSDRVGPFFTYNNEDF
# B2: Zinc finger protein 774 (Homo sapiens), Q6NX45 (parent)
# chain: MWLGTSGKSGLPGHCLENPLQECHPAQLEEWALKGISRPSVISQPEQKEEPWVLPLQNFEARKIPRESHTDCEHQVAKLNQDNSETAEQCGTSSERTNKDLSHTLSWGGNWEQGLELEGQHGTLPGEGQLESFSQERDLNKLLDGYVGEKPMCAECGKSFNQSSYLIRHLRTHTGERPYTCIECGKGFKQSSDLVTHRRTHTGEKPYQCKGCEKKFSDSSTLIKHQRTHTGERPYECPECGKTFGRKPHLIMHQRTHTGEKPYACLECHKSFSRSSNFITHQRTHTGVKPYRCNDCGESFSQSSDLIKHQRTHTGERPFKCPECGKGFRDSSHFVAHMSTHSGERPFSCPDCHKSFSQSSHLVTHQRTHTGERPFKCENCGKGFADSSALIKHQRIHTGERPYKCGECGKSFNQSSHFITHQRIHLGDRPYRCPECGKTFNQRSHFLTHQRTHTGEKPFHCSKCNKSFRQKAHLLCHQNTHLI
# B3: MYG1 exonuclease (Homo sapiens), Q9HB07 (parent)
# chain: MGHRFLRGLLTLLLPPPPLYTRHRMLGPESVPPPKRSRSKLMAPPRIGTHNGTFHCDEALACALLRLLPEYRDAEIVRTRDPEKLASCDIVVDVGGEYDPRRHRYDHHQRSFTETMSSLSPGKPWQTKLSSAGLIYLHFGHKLLAQLLGTSEEDSMVGTLYDKMYENFVEEVDAVDNGISQWAEGEPRYALTTTLSARVARLNPTWNHPDQDTEAGFKRAMDLVQEEFLQRLDFYQHSWLPARALVEEALAQRFQVDPSGEIVELAKGACPWKEHLYHLESGLSPPVAIFFVIYTDQAGQWRIQCVPKEPHSFQSRLPLPEPWRGLRDEALDQVSGIPGCIFVHASGFIGGHRTREGALSMARATLAQRSYLPQIS
# Variants of: B1
# Conditions: with crx_human CRX
row,Variant,effect of a mutation on the interaction
1,MPAAAVQEAVGVCSYGMQLSWDINDPQMPQELALFDQFREWPDGYVRFIYSSNEKKAQRHLSGWAMRNTNNHNGHILKKSCLGVVVCTQACTLPDGSRLQLRPAICDKARLKQQKKACPNCHSALELIPCRGHSGYPVTNFWRLDGNAIFFQAKGVHDHPRPESKSETEARRSAIKRQMASFYQPQKKRIRESEAEENQDSSGHFSNIPPLENPEDFDIVTETSFPIPGQPCPSFPKSDVYKATCDLATFQGDKMPPFQKYSSPRIYLPRPPCSYELANPGYTNSSPYPTLYKDSTSIPNDTDWVHLNTLQCNVNSYSSYERSFDFTNKQHGWKPALGKPSLVERTNHGQFQAMATRPYYNPELPCRYLTTPPPGAPALQTVITTTTKVSYQAYQPPAMKYSDSVREVKSLSSCNYAPEDTGMSVYPEPWGPPVTVTRAASPSGPPPMKIAGDCRAIRPTVAIPHEPVSSRTDEAETWDVCLSGLGSAVSYSDRVGPFFTYNNEDF [D53N],with no effect

# Variants of: B1
# Conditions: with fhl3_human FHL3, Q13643
# Chain of fhl3_human FHL3, Q13643 (Q13643 whole entry): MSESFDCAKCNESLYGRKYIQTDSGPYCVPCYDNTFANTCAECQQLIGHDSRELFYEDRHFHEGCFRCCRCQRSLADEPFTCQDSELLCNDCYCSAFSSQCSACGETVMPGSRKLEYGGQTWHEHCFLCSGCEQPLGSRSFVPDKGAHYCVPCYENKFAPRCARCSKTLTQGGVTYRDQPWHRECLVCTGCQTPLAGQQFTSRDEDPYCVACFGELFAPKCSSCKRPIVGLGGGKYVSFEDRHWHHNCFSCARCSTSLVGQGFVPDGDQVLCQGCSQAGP
row,Variant,effect of a mutation on the interaction
1,MPAAAVQEAVGVCSYGMQLSWDINDPQMPQELALFDQFREWPDGYVRFIYSSNEKKAQRHLSGWAMRNTNNHNGHILKKSCLGVVVCTQACTLPDGSRLQLRPAICDKARLKQQKKACPNCHSALELIPCRGHSGYPVTNFWRLDGNAIFFQAKGVHDHPRPESKSETEARRSAIKRQMASFYQPQKKRIRESEAEENQDSSGHFSNIPPLENPEDFDIVTETSFPIPGQPCPSFPKSDVYKATCDLATFQGDKMPPFQKYSSPRIYLPRPPCSYELANPGYTNSSPYPTLYKDSTSIPNDTDWVHLNTLQCNVNSYSSYERSFDFTNKQHGWKPALGKPSLVERTNHGQFQAMATRPYYNPELPCRYLTTPPPGAPALQTVITTTTKVSYQAYQPPAMKYSDSVREVKSLSSCNYAPEDTGMSVYPEPWGPPVTVTRAASPSGPPPMKIAGDCRAIRPTVAIPHEPVSSRTDEAETWDVCLSGLGSAVSYSDRVGPFFTYNNEDF [D53N],with no effect

# Variants of: B1
# Conditions: with rbpms_human RBPMS
row,Variant,effect of a mutation on the interaction
1,MPAAAVQEAVGVCSYGMQLSWDINDPQMPQELALFDQFREWPDGYVRFIYSSNEKKAQRHLSGWAMRNTNNHNGHILKKSCLGVVVCTQACTLPDGSRLQLRPAICDKARLKQQKKACPNCHSALELIPCRGHSGYPVTNFWRLDGNAIFFQAKGVHDHPRPESKSETEARRSAIKRQMASFYQPQKKRIRESEAEENQDSSGHFSNIPPLENPEDFDIVTETSFPIPGQPCPSFPKSDVYKATCDLATFQGDKMPPFQKYSSPRIYLPRPPCSYELANPGYTNSSPYPTLYKDSTSIPNDTDWVHLNTLQCNVNSYSSYERSFDFTNKQHGWKPALGKPSLVERTNHGQFQAMATRPYYNPELPCRYLTTPPPGAPALQTVITTTTKVSYQAYQPPAMKYSDSVREVKSLSSCNYAPEDTGMSVYPEPWGPPVTVTRAASPSGPPPMKIAGDCRAIRPTVAIPHEPVSSRTDEAETWDVCLSGLGSAVSYSDRVGPFFTYNNEDF [D53N],with no effect

# Variants of: B2
# Conditions: with ldoc1_human LDOC1, O95751
# Chain of ldoc1_human LDOC1, O95751 (O95751 whole entry): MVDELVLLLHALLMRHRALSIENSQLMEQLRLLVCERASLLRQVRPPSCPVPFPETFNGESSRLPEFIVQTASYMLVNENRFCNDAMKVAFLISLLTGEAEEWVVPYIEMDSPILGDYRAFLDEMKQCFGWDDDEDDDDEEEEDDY
row,Variant,effect of a mutation on the interaction
1,MWLGTSGKSGLPGHCLENPLQECHPAQLEEWALKGISRPSVISQPEQKEEPWVLPLQNFEARKIPRESHTDCEHQVAKLNQDNSETAEQCGTSSERTNKDLSHTLSWGGNWEQGLELEGQHGTLPGEGQLESFSQERDLNKLLDGYVGEKPMCAECGKSFNQSSYLIRHLRTHTGERPYTCIACGKGFKQSSDLVTHRRTHTGEKPYQCKGCEKKFSDSSTLIKHQRTHTGERPYECPECGKTFGRKPHLIMHQRTHTGEKPYACLECHKSFSRSSNFITHQRTHTGVKPYRCNDCGESFSQSSDLIKHQRTHTGERPFKCPECGKGFRDSSHFVAHMSTHSGERPFSCPDCHKSFSQSSHLVTHQRTHTGERPFKCENCGKGFADSSALIKHQRIHTGERPYKCGECGKSFNQSSHFITHQRIHLGDRPYRCPECGKTFNQRSHFLTHQRTHTGEKPFHCSKCNKSFRQKAHLLCHQNTHLI [E183A],with no effect
2,MWLGTSGKSGLPGHCLENPLQECHPAQLEEWALKGISRPSVISQPEQKEEPWVLPLQNFEARKIPRESHTDCEHQVAKLNQDNSETAEQCGTSSERTNKDLSHTLSWGGNWEQGLELEGQHGTLPGEGQLESFSQERDLNKLLDGYIGEKPMCAECGKSFNQSSYLIRHLRTHTGERPYTCIECGKGFKQSSDLVTHRRTHTGEKPYQCKGCEKKFSDSSTLIKHQRTHTGERPYECPECGKTFGRKPHLIMHQRTHTGEKPYACLECHKSFSRSSNFITHQRTHTGVKPYRCNDCGESFSQSSDLIKHQRTHTGERPFKCPECGKGFRDSSHFVAHMSTHSGERPFSCPDCHKSFSQSSHLVTHQRTHTGERPFKCENCGKGFADSSALIKHQRIHTGERPYKCGECGKSFNQSSHFITHQRIHLGDRPYRCPECGKTFNQRSHFLTHQRTHTGEKPFHCSKCNKSFRQKAHLLCHQNTHLI [V147I],with no effect
3,MWLGTSGKSGLPGHCLENPLQECHPAQLEEWALKGISRPSVISQPEQKEEPWVLPLQNFEARKIPRESHTDCEHQVAKLNQDNSETAEQCGTSSERTNKDLSHTLSWGGNWEQGLELEGQHGTLPGEGQLESFSQERDLNKLLDGYVGEKPMCAECGKSFNQSSYLIRHLRTHTGERPYTCIECGKGFKQSSDLVTHRRTHTGEKPYQCKGCEKKFSDSSTLIKHQRTHTGERPYECPECGKTFGRKPHLIMHQRTHTGEKPYACLECHKSFSRSSNFITHQRTHTGVKPYRCNDCGESFSQSSDLIKHQRTHTGERPFKCPECGKGFRDSSHFVAHMSTHSGERPFSCPDCHKSFSQSSHLVTHQRTHTGERPFKCENCGKGFADSSALIKHQRIHTGERPYKCGECGKSFNQSSHFITHQRIHLGDRPYRCPECGKTFNQRSHFLTHQRTHTGEKPFHCSKCNKSFCQKAHLLCHQNTHLI [R469C],disrupting interaction strength

# Variants of: B3
# Conditions: with atrap_human AGTRAP
row,Variant,effect of a mutation on the interaction
1,MGHRFLRGLLTLLLPPPPLYTRHRMLGPESVPPPKRSRSKLMAPPRIGTHNGTFHCDEALACALLRLLPEYRDAEIVRTRDPEKLASCDIVVDVGGEYDPRRHRYDHHQRSFTETMSSLSPGKPWQTKLSSAGLIYLHFGHKLLAQLLGTSEEDSMVGTLYDKMYENFVEEVDAVDNGISQWAEGEPQYALTTTLSARVARLNPTWNHPDQDTEAGFKRAMDLVQEEFLQRLDFYQHSWLPARALVEEALAQRFQVDPSGEIVELAKGACPWKEHLYHLESGLSPPVAIFFVIYTDQAGQWRIQCVPKEPHSFQSRLPLPEPWRGLRDEALDQVSGIPGCIFVHASGFIGGHRTREGALSMARATLAQRSYLPQIS [R188Q],with no effect
2,MGHRFLRGLLTLLLPPPPLYTRHRMLGPESVPPPKRSRSKLMAPPRIGTHNGTFHCDEALACALLRLLPEYRDAEIVRTRDPEKLASCDIVVDVGGEYDPRRHRYDHHQRSFTETMSSLSPGKPWQTKLSSAGLIYLHFGHKLLAQLLGTSEEDSMVGTLYDKMYENFVEEVDAVDNGISQWAEGEPRYALTTTLSARVARLNPTWNHPDQDTEAGFKRAMDLVQEEFLQRLDFYQHSWLPAQALVEEALAQRFQVDPSGEIVELAKGACPWKEHLYHLESGLSPPVAIFFVIYTDQAGQWRIQCVPKEPHSFQSRLPLPEPWRGLRDEALDQVSGIPGCIFVHASGFIGGHRTREGALSMARATLAQRSYLPQIS [R243Q],with no effect
